Source: paper PMC5731645 (Neuron, 2017)
Like-named read-outs stand apart in the source and are kept apart here.

B1: DISC1 322–852 (domain or fragment, mouse, UniProt Q811T9-1 322-852, looked up)
chain: ADAHGWHTLLREWEPMLQDYLLSNRRQLEVTSLILKLQKCQEKVVEDGDYDTAETLRQRLEELEQEKGRLSWALPSQQPALRSFLGYLAAQIQVALHGATQRAGSDDPEAPLEGQLRTTAQDSLPASITRRDWLIREKQRLQKEIEALQARMSALEAKEKRLSQELEEQEVLLRWPGCDLMALVAQMSPGQLQEVSKALGETLTSANQAPFQVEPPETLRSLRERTKSLNLAVRELTAQVCSGEKLCSSLRRRLSDLDTRLPALLEAKMLALSGSCFSTAKELTEEIWALSSEREGLEMFLGRLLALSSRNSRRLGIVKEDHLRCRQDLALQDAAHKTRMKANTVKCMEVLEGQLSSCRCPLLGRVWKADLETCQLLMQSLQLQEAGSSPHAEDEEQVHSTGEAAQTAALAVPRTPHPEEEKSPLQVLQEWDTHSALSPHCAAGPWKEDSHIVSAEVGEKCEAIGVKLLHLEDQLLGAMYSHDEALFQSLQGELQTVKETLQAMILQLQPTKEAGEASASYPTAGAQETEA
B4: full-length Nde1 (natural protein, human, UniProt Q9NXR1-2 1-335, looked up)
chain: MEDSGKTFSSEEEEANYWKDLAMTYKQRAENTQEELREFQEGSREYEAELETQLQQIETRNRDLLSENNRLRMELETIKEKFEVQHSEGYRQISALEDDLAQTKAIKDQLQKYIRELEQANDDLERAKRATIMSLEDFEQRLNQAIERNAFLESELDEKENLLESVQRLKDEARDLRQELAVQQKQEKPRTPMPSSVEAERTDTAVQATGSVPSTPIAHRGPSSSLNTPGSFRRGLDDSTGGTPLTPAARISALNIVGDLLRKVGALESKLASCRNLVYDQSPNRTGGPASGRSSKNRDGGERRPSSTSVPLGDKGLDTSCRWLSKSTTRSSSSC
B5: DISC1 765–835 (domain or fragment, mouse, UniProt Q811T9-1 765-835, looked up)
chain: GPWKEDSHIVSAEVGEKCEAIGVKLLHLEDQLLGAMYSHDEALFQSLQGELQTVKETLQAMILQLQPTKEA

Columns and labels:
[1] = target: B4; assay: ITC
[2] = target: the molecule itself; assay: SEC-MALS
[3] = target: B1; assay: ITC
[4] = target: T1, trx-Ndel1 CT-CC (mouse, UniProt Q9ERR1-1 238-284); assay: SEC-MALS
T1 chain (looked up): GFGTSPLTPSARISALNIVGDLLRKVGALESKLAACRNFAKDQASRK

[5] = target: the molecule itself; assay: SEC-MALS; remark: listed apart in the source
[6] = target: B5; assay: ITC
[7] = target: T2, DISC1 765–852 (mouse, UniProt Q811T9-1 765-852); assay: NMR structure
T2 sequence (looked up): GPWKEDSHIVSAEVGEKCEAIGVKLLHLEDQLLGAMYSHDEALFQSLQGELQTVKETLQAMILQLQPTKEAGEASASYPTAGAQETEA

B1
stoichiometry N [1]: 1

B2: Ndel1 with the C-terminal half (aa 194–345) truncated (domain or fragment, mouse, UniProt Q9ERR1-1 1-193, looked up)
chain: MDGEDIPDFSSLKEETAYWKELSLKYKQSFQEARDELVEFQEGSRELEAELEAQLVQAEQRNRDLQADNQRLKYEVEALKEKLEHQYAQSYKQVSVLEDDLSQTRAIKEQLHKYVRELEQANDDLERAKRATIVSLEDFEQRLNQAIERNAFLESELDEKESLLVSVQRLKDEARDLRQELAVRERQQEVTRK
stoichiometry N [2]: 2

B3: full-length Ndel1 (natural protein, mouse, UniProt Q9ERR1-1 1-345, looked up)
chain: MDGEDIPDFSSLKEETAYWKELSLKYKQSFQEARDELVEFQEGSRELEAELEAQLVQAEQRNRDLQADNQRLKYEVEALKEKLEHQYAQSYKQVSVLEDDLSQTRAIKEQLHKYVRELEQANDDLERAKRATIVSLEDFEQRLNQAIERNAFLESELDEKESLLVSVQRLKDEARDLRQELAVRERQQEVTRKSAPSSPTLDCEKMDSAVQASLSLPATPVGKGTENSFPSPKAIPNGFGTSPLTPSARISALNIVGDLLRKVGALESKLAACRNFAKDQASRKSYVPGSVNCGVMNSNGPECPRSGRATFFHKGAVNGFDPAPPPPGLGSSRPSSAPGMLPLSV
stoichiometry N [2]: 2

B4
Kd [3]: ~40 nM

B5
stoichiometry N [4]: 1
stoichiometry N [5]: 2
binding result [1]: binds

STGGTPLTPAARISALNIVGDLLRKVGALESKLASCRNLVYDQSPNRT (domain or fragment, human, UniProt Q9NXR1-2 239-286, looked up) [Nde1 CT-CC]
binding result [6]: binds

GFGTSPLTPSARISALNIVGDLLRKVGALESKLAACRNFAKDQASRK (domain or fragment, mouse, UniProt Q9ERR1-1 238-284, looked up) [Ndel1 CT-CC]
binding result [6]: binds
binding result [7]: binds
